Measured values taken from PMC3999984.

Legend:
[1] = target: pT18c-Zip (leucine zipper fragment encoded by control plasmid pUT18C-zip); assay: two-hybrid; bacterial adenylate cyclase two-hybrid (BACTH) in cya- E. coli BTH101; bait RbaW, preys in pKNT25 or pKT25; β-galactosidase activity (units mg^-1 dry weight) of 3 replicate co-transformants
[2] = target: pT18c-RbaW (RbaW in BACTH vector pUT18c) (Rhodobacter capsulatus); assay: as above

Row | Substance | β-galactosidase activity [1] [units mg^-1] | β-galactosidase activity [2] [units mg^-1]
1 | KT-Zip (leucine zipper fragment encoded by control plasmid pKT25-zip) (domain or fragment) | 7340 | 
2 | pKNT25-RbaV (RbaV in BACTH vector pKNT25) (natural protein) |  | 1440
